Measurements: ChEMBL document CHEMBL2074277, “Expression and localization of organic cation/carnitine transporter OCTN2 in Caco-2 cells” (Am J Physiol Gastrointest Liver Physiol, 2003)

Substrate: C[N+](C)(C)CC(O)CC(=O)[O-]
Test: TP_TRANSPORTER: uptake in Caco-2 cells
Assay type: functional, cell-based

B1: Organic cation/carnitine transporter 2 (Homo sapiens) (protein)
chain: MRDYDEVTAFLGEWGPFQRLIFFLLSASIIPNGFTGLSSVFLIATPEHRCRVPDAANLSSAWRNHTVPLRLRDGREVPHSCRRYRLATIANFSALGLEPGRDVDLGQLEQESCLDGWEFSQDVYLSTIVTEWNLVCEDDWKAPLTISLFFVGVLLGSFISGQLSDRFGRKNVLFVTMGMQTGFSFLQIFSKNFEMFVVLFVLVGMGQISNYVAAFVLGTEILGKSVRIIFSTLGVCIFYAFGYMVLPLFAYFIRDWRMLLVALTMPGVLCVALWWFIPESPRWLISQGRFEEAEVIIRKAAKANGIVVPSTIFDPSELQDLSSKKQQSHNILDLLRTWNIRMVTIMSIMLWMTISVGYFGLSLDTPNLHGDIFVNCFLSAMVEVPAYVLAWLLLQYLPRRYSMATALFLGGSVLLFMQLVPPDLYYLATVLVMVGKFGVTAAFSMVYVYTAELYPTVVRNMGVGVSSTASRLGSILSPYFVYLGAYDRFLPYILMGSLTILTAILTLFLPESFGTPLPDTIDQMLRVKGMKHRKTPSHTRMLKDGQERPTILKSTAF
Km: 14.1 µM
